Measured values taken from patent US20220031841A1 (ABSCI, published 2022).

T1: Src homology 2 (SH2) domain containing inositol polyphosphate 5-phosphatase 1 (SHIP1) (human, UniProt Q92835 1-1189)
T1 construct: The array carries full-length recombinant human proteins expressed in S. cerevisiae, purified and printed on glass slides; also called INPP5D; INPP5D/SHIP1
T1 sequence: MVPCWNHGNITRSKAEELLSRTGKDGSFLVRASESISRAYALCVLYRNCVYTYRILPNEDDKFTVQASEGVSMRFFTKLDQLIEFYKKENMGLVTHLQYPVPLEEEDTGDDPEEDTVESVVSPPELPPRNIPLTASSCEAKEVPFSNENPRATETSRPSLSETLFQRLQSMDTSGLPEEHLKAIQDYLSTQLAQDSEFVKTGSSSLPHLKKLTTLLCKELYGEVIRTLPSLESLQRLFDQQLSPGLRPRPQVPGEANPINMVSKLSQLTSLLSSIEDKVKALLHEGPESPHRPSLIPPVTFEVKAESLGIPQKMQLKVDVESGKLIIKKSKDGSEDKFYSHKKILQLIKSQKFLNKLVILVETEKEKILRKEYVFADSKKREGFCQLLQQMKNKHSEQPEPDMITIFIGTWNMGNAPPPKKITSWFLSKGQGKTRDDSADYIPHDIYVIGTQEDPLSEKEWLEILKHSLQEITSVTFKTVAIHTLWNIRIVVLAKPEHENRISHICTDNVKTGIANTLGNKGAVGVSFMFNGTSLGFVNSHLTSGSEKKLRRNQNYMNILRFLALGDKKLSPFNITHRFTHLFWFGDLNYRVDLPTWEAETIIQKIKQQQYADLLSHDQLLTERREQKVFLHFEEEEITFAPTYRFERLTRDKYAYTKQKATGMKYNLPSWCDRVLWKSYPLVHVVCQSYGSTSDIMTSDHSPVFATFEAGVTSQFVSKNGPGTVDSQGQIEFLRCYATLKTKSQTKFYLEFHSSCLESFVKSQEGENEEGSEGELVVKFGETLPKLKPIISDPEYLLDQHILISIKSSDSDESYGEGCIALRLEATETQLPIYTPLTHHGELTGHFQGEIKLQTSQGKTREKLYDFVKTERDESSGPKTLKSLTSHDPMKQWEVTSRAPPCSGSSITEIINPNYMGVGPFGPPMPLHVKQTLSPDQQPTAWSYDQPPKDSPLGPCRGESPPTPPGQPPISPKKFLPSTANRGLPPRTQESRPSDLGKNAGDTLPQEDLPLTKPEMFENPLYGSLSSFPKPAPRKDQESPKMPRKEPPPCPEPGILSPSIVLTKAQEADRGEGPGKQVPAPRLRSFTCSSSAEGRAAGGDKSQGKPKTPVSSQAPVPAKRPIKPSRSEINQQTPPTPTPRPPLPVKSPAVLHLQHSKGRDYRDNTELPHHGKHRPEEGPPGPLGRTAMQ

T2: Inorganic pyrophosphatase (PPA1) (human, UniProt Q15181 2-289)
T2 construct: The array carries full-length recombinant human proteins expressed in S. cerevisiae; also called Human PPA1
T2 sequence: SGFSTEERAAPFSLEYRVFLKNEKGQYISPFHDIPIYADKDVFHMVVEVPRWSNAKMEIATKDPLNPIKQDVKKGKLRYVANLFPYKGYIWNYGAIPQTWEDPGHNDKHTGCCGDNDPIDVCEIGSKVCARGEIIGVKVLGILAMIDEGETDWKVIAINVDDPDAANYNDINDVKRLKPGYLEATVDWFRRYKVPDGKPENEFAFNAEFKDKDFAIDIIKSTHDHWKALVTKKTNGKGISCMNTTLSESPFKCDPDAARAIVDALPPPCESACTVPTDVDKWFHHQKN


Columns and labels:
Test in all cases: HuProt protein array, F635 z-score
[1] = target: T1, Src homology 2 (SH2) domain containing …
Description: (§1) Large scale protein arrays are versatile and sensitive platforms for antibody specificity evaluation. They can be used for the evaluation of protein binding or affinity reagents that are widely employed in research and clinical applications. The microarray used in our target identification experiment provides the largest number of unique, full-length, individually purified human proteins on a single microscope slide. This allows thousands of interactions to be profiled in a high-throughput manner. The hill-length recombinant proteins are expressed in the yeast S. cerevisiae, purified, and printed on glass slides in duplicate along with a set of control proteins (GST, BSA, histones, IgG, etc.). Such microarray is not restricted to a particular type of surface coating, although the default is glass coated with ultra-thin nitrocellulose film for the non-covalent, yet irreversible, capture of active proteins to the surface. Fourteen Protein arrays were used for the antibody cross-reactivity assay of the samples. The antibodies were probed at […] on the arrays and incubated at room temperature for 1 hour. After probing, the arrays were washed according to the protocol and probed with Alexa-647-anti-human IgG […] specific secondary antibodies under conditions optimized for signal detection. The antibody-antigen binding score was calculated for each protein represented on the array and expressed as z-scores.
(§2) Antibody samples are probed on native HuProt arrays at 1 μg/ml and incubated at room temperature for 1 hour. After probing, the arrays are washed according to the standard protocols and probed with Alexa-647-anti-human IgG Fc gamma specific secondary antibodies under conditions optimized for signal detection.
(§3) Z score is the average Z score of the duplicate spots of a given protein (each protein is printed in duplicate on a HuProt™ array). The Z score of each spot on a given array is calculated according to the equation: […]

[2] = target: T3, Chromobox protein homolog 1 (CBX1) (human, UniProt P83916 1-185)
T3 construct: The array carries full-length recombinant human proteins expressed in S. cerevisiae; also called Human Chromobox protein homolog 1
T3 sequence (P83916 whole entry): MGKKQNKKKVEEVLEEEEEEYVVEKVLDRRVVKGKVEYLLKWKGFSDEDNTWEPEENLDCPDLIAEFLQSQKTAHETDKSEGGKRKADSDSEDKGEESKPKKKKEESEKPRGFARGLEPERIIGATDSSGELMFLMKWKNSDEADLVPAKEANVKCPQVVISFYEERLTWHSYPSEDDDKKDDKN
Description: as §1, §2, §3

[3] = target: T4, Melanoma-associated antigen 3 (MAGE-A3) (human, UniProt P43357 1-314)
T4 construct: The array carries full-length recombinant human proteins expressed in S. cerevisiae; also called Human MAGE-A3
T4 sequence (P43357 whole entry): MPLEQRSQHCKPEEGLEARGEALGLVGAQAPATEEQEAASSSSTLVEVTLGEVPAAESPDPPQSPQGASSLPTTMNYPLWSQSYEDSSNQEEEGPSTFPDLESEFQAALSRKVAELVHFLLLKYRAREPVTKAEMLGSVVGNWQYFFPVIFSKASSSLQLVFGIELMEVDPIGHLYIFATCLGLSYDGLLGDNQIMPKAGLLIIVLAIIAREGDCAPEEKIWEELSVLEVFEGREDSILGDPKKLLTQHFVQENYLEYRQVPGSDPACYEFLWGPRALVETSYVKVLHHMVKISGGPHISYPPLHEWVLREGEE
Description: as §1, §2, §3

[4] = target: T2, Inorganic pyrophosphatase (PPA1)
Description: as §1, §2, §3

[5] = target: T5, Alpha-taxilin (TXLNA) also known as interleukin-14A (human, UniProt P40222 1-546)
T5 construct: The array carries full-length recombinant human proteins expressed in S. cerevisiae; also called IL-14A; TXLNA/IL-14A
T5 sequence (P40222 whole entry): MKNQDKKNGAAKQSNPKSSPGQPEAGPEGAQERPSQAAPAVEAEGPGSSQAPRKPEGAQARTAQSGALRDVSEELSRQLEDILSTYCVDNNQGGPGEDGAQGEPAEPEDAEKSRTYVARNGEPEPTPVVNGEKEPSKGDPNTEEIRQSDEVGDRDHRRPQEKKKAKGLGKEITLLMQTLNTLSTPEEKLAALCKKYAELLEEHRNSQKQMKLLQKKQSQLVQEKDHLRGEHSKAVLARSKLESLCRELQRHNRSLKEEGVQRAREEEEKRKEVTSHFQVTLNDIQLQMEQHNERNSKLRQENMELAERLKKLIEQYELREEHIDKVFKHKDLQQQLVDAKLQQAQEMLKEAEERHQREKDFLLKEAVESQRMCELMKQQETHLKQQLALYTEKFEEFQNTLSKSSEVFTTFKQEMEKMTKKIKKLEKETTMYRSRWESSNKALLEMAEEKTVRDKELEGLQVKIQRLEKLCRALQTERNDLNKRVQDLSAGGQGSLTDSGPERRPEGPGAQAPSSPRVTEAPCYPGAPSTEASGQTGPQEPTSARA
Description: as §1, §2, §3

Binder	binding result [1]	binding result [2]	binding result [3]	binding result [4]	binding result [5]
TMEL1010 (antibody, V domains shown, It was detected with an anti-human IgG Fc gamma secondary antibody) VH: QVQLVQSGAEVKKPGASVKVSCKASGYTFSSYGISWVRQAPGQGLEWMGWISAYNGNTNYAKKLQGRVTMTTDTSTSTAYLELRSLRSDDTAVYYCARGDGPFDYWGQGTLVTVSS VL: EIVMTQSPATLSVSPGERATLSCWASQSVSSSLAWYQQKPGQAPRLLMYGASNRATGIPARFSGSGSGTEFTLTISSLQSEDFAVYYCQQYNKWPPDTFGQGTKLEIKR	no binding (tested: 1 µg/ml)	no binding (tested: 1 µg/ml)	no binding (tested: 1 µg/ml)	–	no binding (tested: 1 µg/ml)
TMEL1008 (antibody, V domains shown, It was detected with an anti-human IgG Fc gamma secondary antibody) VH: QVQLVQSGAEVKKPGSSVKVSCKASGGTFNRDGIIWVRQAPGQGLEWMGRIIPILGIANYAQKFQGRVTIIADKSTSTAYMELSSLRSEDTAVYYCARESEVGRGMDVWGQGTTVTVSS VL: ASALTQPASVSGSPGQSITISCTGTSSDVGDYNYVSWYQQHPGKAPKLMIYDVSNRPSGVSHRFSGSKSGNTASLTISGLQAEDEADYYCSSYTISSTLGVFGPGTKVTVLG	no binding (tested: 1 µg/ml)	no binding (tested: 1 µg/ml)	–	no binding (tested: 1 µg/ml)	no binding (tested: 1 µg/ml)
TMEL1009 (antibody, V domains shown) VH: PVQLVQSGAEVKKPGSSVKVSCRASGGTFSNYGLNWVRQAPGQGLEWMGGIIPIFGSVNYAQKFQDRVTITADESTSTTYMDLNSLRSEDTAVYYCATERGHNMERAFDFWGQGTLVTVSS VL: not shown	no binding (tested: 1 µg/ml)	no binding (tested: 1 µg/ml)	–	no binding (tested: 1 µg/ml)	no binding (tested: 1 µg/ml)
TMEL1012 (antibody, V domains shown) VH: PLQLQESGPGLVKPSETLSLTCTVSGDSITTTYYWGWIRQPPGKGLEWIASIYFTGSTFHNPSLKSRVTMSVDTSKNQFSLNLSSVTAADTAVYYCARRVGNWNYVWFDPWGQGTLVSVSS VL: AYVLTQPPSVSVAPGQTARMTCGGNNIGSKSVHWYRQRPGQAPVLVVYDDTDRPSGIPERFSGSNSGNTATLTISRVEAGDEADYYCQVWDTNSDHVVFGGGTKLTVLG	no binding (tested: 1 µg/ml)	no binding (tested: 1 µg/ml)	no binding (tested: 1 µg/ml)	no binding (tested: 1 µg/ml)	no binding (tested: 1 µg/ml)

The next lines start with the values.

binding result [1]	binding result [2]	binding result [3]	binding result [4]	binding result [5]	Binder
no binding (tested: 1 µg/ml)	no binding (tested: 1 µg/ml)	no binding (tested: 1 µg/ml)	no binding (tested: 1 µg/ml)	–	TMEL1011 (antibody, V domains shown, It was detected with an anti-human IgG Fc gamma secondary antibody) VH: PVQLVQSGAEVKKPGSSVKVSCKASGGTFSSYSFNWVRQAPGQGLEWMARIIPILGLANYAQKFQGRVTLTADESTSTAYMELSSLRSEDTAIFYCAGMVLGQLGFDPWGQGTLVTVSS VL: QFMLTQPHSVSESPGRTVTISCTRSSGSIARNYVHWYQHRPGSSPTTVIYEDDQRPSGVPDRFSGSIDSSSNSASLTISGLKPEDEADYFCQSYDSNIWVFGGGTKLTVLG
no binding (tested: 1 µg/ml)	no binding (tested: 1 µg/ml)	no binding (tested: 1 µg/ml)	no binding (tested: 1 µg/ml)	no binding (tested: 1 µg/ml)	TMEL1007 (antibody, V domains shown, It was detected with an anti-human IgG Fc gamma secondary antibody) VH: HVHLVQSGAEVKKPGSSVKVSCTASGGSFSSNPISWVRQAPGHGLQWMGGFVPLFGTANYAPSFHGRLTITADESTSTTYMELNSLRSEDSAVYYCARDFNWNFDFWGQGTLVTVSS VL: QSALTQPASVSGSPGQSITISCTGTSSDIGSYNLVSWYRQYPGKAPKLMIYEVNKRPSGVSNRFSGSKSGNTASLTISGLQAEDEADYYCCSYAGTTTFVIFGRGTKLTVLG
no binding (tested: 1 µg/ml)	no binding (tested: 1 µg/ml)	–	no binding (tested: 1 µg/ml)	no binding (tested: 1 µg/ml)	TMEL1014 (antibody, V domains shown, It was detected with an anti-human IgG Fc gamma secondary antibody) VH: SVQLVESGGGVVQPGRSLRLSCAASGFTFSSYTMHWVRQAPGKGLEWVALISYDGSNKYYADSVKGRFTISRDNPKNTLYLQMNSLRVEDTAVYYCARDWTLGYWGQGTLVTVSS VL: VSSELTQDPAVSVALGQTVRITCQGDSLRNYYANWYQQKPGQAPILVIYDKNNRPSGIPDRFSGSSSGNTASLTITGAQAEDEADYYCNSRDSSGYHLVFGGGTKLTVLG
no binding (tested: 1 µg/ml)	no binding (tested: 1 µg/ml)	no binding (tested: 1 µg/ml)	no binding (tested: 1 µg/ml)	no binding (tested: 1 µg/ml)	TMEL1002 (antibody, V domains shown) VH: not shown VL: ASALTQPASVSGSPGQSITISCTGTSSDVGDYNYVSWYQQHPGKAPKLMIYDVSNRPSGVSNRFSGSKSGNTASLTISGLQAEDEADYYCSSYTSSSTLVFGGGTKLTVLG
no binding (tested: 1 µg/ml)	no binding (tested: 1 µg/ml)	–	no binding (tested: 1 µg/ml)	no binding (tested: 1 µg/ml)	TMEL1013 (antibody, V domains shown) VH: PVQLVQSGAEVKKPGSSVKVSCKASGGTFSSYTINWVRQAPGQGLEWMGRIIPILGVANYAQKFQGRVTITADKSTSTAYMDLSSLRSEDTAVYYCAREWERAFDYWGQGTLVTVSS VL: not shown
